Here are results for two molecules from patent US8309523 (VIB VZW, dated 2012).

Positions count from the first letter of the chain named.

For experiment [1], the target named is T1, MALT1 (wild type, Flag- and Avi-tagged bio-construct) (human, UniProt Q9UDY8 1-824, Avi-tag biotinylated in vivo by co-expressed BirA).
T1 construct: also called paracaspase; bio-IP purified MALT1
T1 sequence (looked up): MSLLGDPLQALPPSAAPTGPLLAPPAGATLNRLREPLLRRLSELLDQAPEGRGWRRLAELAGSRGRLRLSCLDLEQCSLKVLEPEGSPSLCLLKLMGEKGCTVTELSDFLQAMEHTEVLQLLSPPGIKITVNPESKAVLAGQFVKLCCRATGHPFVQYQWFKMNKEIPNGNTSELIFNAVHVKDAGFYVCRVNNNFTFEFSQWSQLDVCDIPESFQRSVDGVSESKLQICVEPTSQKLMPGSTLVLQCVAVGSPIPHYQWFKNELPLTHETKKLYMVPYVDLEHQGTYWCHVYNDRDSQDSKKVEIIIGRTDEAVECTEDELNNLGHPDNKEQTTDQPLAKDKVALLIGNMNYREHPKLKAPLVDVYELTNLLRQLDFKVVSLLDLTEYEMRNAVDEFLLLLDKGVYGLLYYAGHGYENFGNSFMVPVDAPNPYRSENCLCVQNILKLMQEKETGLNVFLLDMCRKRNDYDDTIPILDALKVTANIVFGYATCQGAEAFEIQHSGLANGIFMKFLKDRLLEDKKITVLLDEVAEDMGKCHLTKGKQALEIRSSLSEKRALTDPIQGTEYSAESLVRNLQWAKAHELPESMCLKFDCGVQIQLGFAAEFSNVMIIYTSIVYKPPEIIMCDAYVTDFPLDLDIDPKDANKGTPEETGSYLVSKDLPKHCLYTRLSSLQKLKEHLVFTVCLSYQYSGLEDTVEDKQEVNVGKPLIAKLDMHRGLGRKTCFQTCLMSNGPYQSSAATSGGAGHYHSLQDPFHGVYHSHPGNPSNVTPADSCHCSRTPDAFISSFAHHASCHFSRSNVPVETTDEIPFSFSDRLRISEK
Nature of the experiment: immunoblots of bio-IPs from Jurkat cells with stable expression. (In general: Immunoblotting shows a protein as a band on a membrane.)

Experiment [2] deals with T2, MALT1-R149A (bio-tagged) (human, UniProt Q9UDY8 1-824, Avi-tag biotinylated in vivo by co-expressed BirA).
T2 construct: also called R149A mutant
T2 sequence (looked up): T1 sequence (looked up) with R149A
Nature of the experiment: co-IP (bio-IP, immunoblot).

Experiment [3] concerns the target T3, MALT1-C464A (bio-tagged) (human, UniProt Q9UDY8 1-824).
T3 construct: also called C464A mutant; C464 mutant
T3 sequence (looked up): T1 sequence (looked up) with C464A
Briefly: co-IP (bio-IP, immunoblot).

Experiment [4] addresses T2, MALT1-R149A (bio-tagged). Nature of the experiment: immunoblots of bio-IPs from Jurkat cells with stable expression.
Experiment [5] concerns the target T3, MALT1-C464A (bio-tagged). The description is as above.

B1: BCL10 (other, UniProt O95999 1-233, looked up)
chain: MEPTAPSLTEEDLTEVKKDALENLRVYLCEKIIAERHFDHLRAKKILSREDTEEISCRTSSRKRAGKLLDYLQENPKGLDTLVESIRREKTQNFLIQKITDEVLKLRNIKLEHLKGLKCSSCEPFPDGATNNLSRSNSDESNFSEKLRASTVMYHPEGESSTTPFFSTNSSLNLPVLEVGRTENTIFSSTTLPRPGDPGAPPLPPDLQLEEEGTCANSSEMFLPLRSRTVSRQ
notes: Co-precipitated from lysates of human cell lines
In the case of B1, the binding result (in experiment [1]; with MALT1-R149A (bio-tagged) [2]; in the experiment with MALT1-C464A (bio-tagged) [3]) was “binds” in each case.

B2: TRAF6 (other, UniProt Q9Y4K3 1-522, looked up)
chain: MSLLNCENSCGSSQSESDCCVAMASSCSAVTKDDSVGGTASTGNLSSSFMEEIQGYDVEFDPPLESKYECPICLMALREAVQTPCGHRFCKACIIKSIRDAGHKCPVDNEILLENQLFPDNFAKREILSLMVKCPNEGCLHKMELRHLEDHQAHCEFALMDCPQCQRPFQKFHINIHILKDCPRRQVSCDNCAASMAFEDKEIHDQNCPLANVICEYCNTILIREQMPNHYDLDCPTAPIPCTFSTFGCHEKMQRNHLARHLQENTQSHMRMLAQAVHSLSVIPDSGYISEVRNFQETIHQLEGRLVRQDHQIRELTAKMETQSMYVSELKRTIRTLEDKVAEIEAQQCNGIYIWKIGNFGMHLKCQEEEKPVVIHSPGFYTGKPGYKLCMRLHLQLPTAQRCANYISLFVHTMQGEYDSHLPWPFQGTIRLTILDQSEAPVRQNHEEIMDAKPELLAFQRPTIPRNPKGFGYVTFMHLEALRQRTFIKDDTLLVRCEVSTRFDMGSLRREGFQPRSTDAGV
notes: as for B1
For the molecule B2, the binding result with MALT1-R149A (bio-tagged) [4] and in the experiment with MALT1-C464A (bio-tagged) [5] was “binds” in each case.
